{"source": "paper PMC5445279", "about": "“Proanthocyanidin accumulation and transcriptional responses in the seed coat of cranberry beans (Phaseolus vulgaris L.) with different susceptibility to postharvest darkening” (BMC Plant Biology, 2017)", "molecules": {"B1": {"name": "PvANR1 (Phaseolus vulgaris) (protein)", "chain": "MATVKKIGKKACVIGGSGFMASCLVKQLLHKGYAVNTTVRDPDNAKKISHLLALQSLGDLNIFGADLTGERDFDAPIAGCELVFQLATPVNFASEDPENDMIKPAISGVLNVLKACARAKGVKRVILTSSAAAVTINPVKDTGLVMDESNWTDVEFLNTAKPPTWGYPVSKALAEKAAWKFAEENHIDLITVIPTLTTGPSLTPDIPSSVGLATSLITGNDFLINALKGMQFLSGSISITHVEDICRAHIFVAENESASGRYIVSSHSTSVPELAKFLSKRYPQYKVPTEFDDCPSKAKLTISSEKLVKEGFSFKYGIEEIYDQSVEYLKSKGALKN", "notes": "full ORF (1014 bp PCR product) from seed coat cDNA, pET-30b, E. coli BL21; N-terminal His6 tag cut by enterokinase; forward primer encodes MATVKKIGK"}}, "key": {"PvANR1": {"target": "T1, PvANR1 (Phaseolus vulgaris, UniProt A0A1V0E4B3)", "T1 construct": "gene ANR1; full ORF (1014 bp PCR product) from seed coat cDNA, pET-30b, E. coli BL21; N-terminal His6 tag cut by enterokinase; forward primer encodes MATVKKIGK", "assay": "HPLC-DAD of epicatechin formation, substrate-inhibition fit", "format": "biochemical", "settings": "substrate inhibition by cyanidin, product epicatechin; 800 μM NADPH, 50 mM HEPES pH 7.0, 30 °C; apparent", "from_the_text": "(§1) HPLC-DAD of epicatechin formation, substrate-inhibition fit on PvANR1"}, "[1]": {"substrate": "NC(=O)C1=CN([C@@H]2O[C@H](COP(=O)(O)OP(=O)(O)OC[C@H]3O[C@@H](n4cnc5c(N)ncnc54)[C@H](OP(=O)(O)O)[C@@H]3O)[C@@H](O)[C@H]2O)C=CC1", "assay": "HPLC-DAD of epicatechin formation, Hill fit", "format": "biochemical, Phaseolus vulgaris", "settings": "product epicatechin, 100 μM cyanidin, 50 mM HEPES pH 7.0, 30 °C, Hill coefficient 2.5, varied: cofactor", "from_the_text": "HPLC-DAD of epicatechin formation, Hill fit on PvANR1"}, "[2]": {"substrate": "Oc1cc(O)c2cc(O)c(-c3ccc(O)c(O)c3)[o+]c2c1", "assay": "HPLC-DAD of epicatechin formation, substrate-inhibition fit", "format": "biochemical, Phaseolus vulgaris", "settings": "product epicatechin, 800 μM NADPH, 50 mM HEPES pH 7.0, 30 °C, apparent, substrate inhibition model", "from_the_text": "as §1"}}}
{"molecule": "Oc1cc(O)c2cc(O)c(-c3ccc(O)c(O)c3)[o+]c2c1", "note": "[cyanidin]", "values": [{"measurement": "K i", "setting": "PvANR1", "result": "631.5 ± 119.9", "unit": "µM"}]}
{"molecule": "B1", "values": [{"measurement": "K0.5", "setting": "[1]", "result": "103.5 ± 7.4", "unit": "µM"}, {"measurement": "Vmax", "setting": "[1]", "result": 0.00334, "unit": "µmol/min/mg"}, {"measurement": "kcat", "setting": "[1]", "result": "0.0021 ± 0.0001", "unit": "s⁻¹"}, {"measurement": "kcat/Km", "setting": "[1]", "result": "20.1 ± 0.49", "unit": "M⁻¹ s⁻¹"}, {"measurement": "K0.5", "setting": "[2]", "result": "114.2 ± 19.0", "unit": "µM"}, {"measurement": "Vmax", "setting": "[2]", "result": 0.0116, "unit": "µmol/min/mg"}, {"measurement": "kcat", "setting": "[2]", "result": "0.0072 ± 0.0007", "unit": "s⁻¹"}, {"measurement": "kcat/Km", "setting": "[2]", "result": "65.4 ± 13.8", "unit": "M⁻¹ s⁻¹"}]}
